The assay has as its target native human IL-23 receptor on the surface of cultured human cells (K-562, THP-1, Jurkat) and primary human T-cells (human) (UniProt Q5VWK5). Kind of assay: cell-based or functional assay.

Chain of native human IL-23 receptor on the surface of cultured human cells (K-562, THP-1, Jurkat) and primary human T-cells (human) (Q5VWK5 24-629): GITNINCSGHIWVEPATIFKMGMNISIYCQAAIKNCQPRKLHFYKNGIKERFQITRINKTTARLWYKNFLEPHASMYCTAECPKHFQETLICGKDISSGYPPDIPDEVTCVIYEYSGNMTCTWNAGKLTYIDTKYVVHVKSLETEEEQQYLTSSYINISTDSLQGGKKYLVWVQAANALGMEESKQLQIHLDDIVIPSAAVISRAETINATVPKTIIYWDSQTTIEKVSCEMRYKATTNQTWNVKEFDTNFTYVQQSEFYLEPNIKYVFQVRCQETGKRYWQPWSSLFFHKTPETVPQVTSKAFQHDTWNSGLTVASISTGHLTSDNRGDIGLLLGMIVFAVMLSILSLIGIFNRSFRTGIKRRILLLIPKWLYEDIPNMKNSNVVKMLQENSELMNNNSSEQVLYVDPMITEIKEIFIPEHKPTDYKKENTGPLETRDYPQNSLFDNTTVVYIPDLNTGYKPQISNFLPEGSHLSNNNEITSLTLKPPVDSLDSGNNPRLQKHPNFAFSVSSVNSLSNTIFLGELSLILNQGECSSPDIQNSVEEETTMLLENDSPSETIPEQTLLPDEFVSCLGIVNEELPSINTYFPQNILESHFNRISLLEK

Substance “His6-ABDwt-TolA-AVI (from UniProt P19934 131-421)” registered a Th-17+ cell expansion (IL-17-producing cells) in PBMC suspensions after 3 days, normalized to IL-23 only = 1 (normalized cell count (IL-23 only = 1)) of 0.88 and a Th-17+ cell expansion in separated T-cell samples after 3 days, normalized to IL-23 only = 1 (normalized cell count (IL-23 only = 1)) of 0.99.

The values above are taken from patent EP2922560B1.
